According to publication PMC10350043:
Where no end group is shown, it is not given here. QXL520 = dark acceptor

Columns and labels:
Experiment in all cases: FRET or BRET
[1] = target: RyR2 in cardiac SR membranes decorated with D-32-FKBP (porcine (endogenous in porcine heart) | human)
[2] = target: RyR2 in cardiac SR membranes decorated with D-49-FKBP (porcine (endogenous in porcine heart) | human)
[3] = target: RyR2 in cardiac SR membranes decorated with D-85-FKBP (porcine (endogenous in porcine heart) | human)

B1: acceptor-labeled DPc10 (QXL520 at the N-terminus) (peptide)
peptide: QXL520-GFCPDHKAAMVLFLDRVYGIEVQDFLLHLLEVGFLP
[1]
  Kd: 13.1 µM
[2]
  Kd: 9.9 µM
[3]
  Kd: 10.4 µM
